Here are results for one molecule from PMC8595303, “Dramatic activation of an antibody by a single amino acid change in framework” (Scientific Reports, 2021).

This assay has as its target T1, mature form of human TGFβ2 (made from LAP-TGFβ2 in CHO, for crystallization) (Homo sapiens).
T1 construct: Transforming Growth Factor-beta 2, human, mature form separated from LAP-TGFβ2; also called TGFb2; TGFβ2 dimer
T1 chain: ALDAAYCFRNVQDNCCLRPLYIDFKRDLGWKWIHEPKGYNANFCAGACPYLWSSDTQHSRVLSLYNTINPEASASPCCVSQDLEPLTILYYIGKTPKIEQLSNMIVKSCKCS
Kind of assay: crystal structure; TGFβ2 and h4A11.v2 Fab mixed at 1:1 molar ratio, complex purified on Superdex-200 (25 mM Tris-HCl pH 7.5, 200 mM NaCl); crystals by vapor diffusion at 19 °C, 15% PEG 4000, 0.1 M Na Cacodylate pH 6.0; 2.9 Å. The settings on record: both partners purified.

B1: Fab fragment of h4A11.v2 (Fab, V domains shown)
VH: EQQLVESGGGLVQPGGSLRLSCAVSGFSLSSYTVNWVRQAPGKGLEWIGYISYGGSAYYASWANGRFTISKDSAKNSVYLQMNSLRAEDTAVYFCARHMQVGGAPTGSMAAFDPWGPGTLVTVSS
VL: DAQLTQSPSSLSASVGDRVTITCQSSQSVYNNNYLSWFQQKPGKPPKLLIYGASTLTSGVPSRFSGSGSGTDFTLTISSLQPEDFATYYCAGGYSGSSDKYAFGGGTKVEIK
notes: Fab heavy chain of h4A11.v2; its VH as the VH of m7; Fab light chain of h4A11.v2; its VL as the VL of m7; also called h4A11.v2-Fab; h4A11.v2 Fab; source: E. coli, purified (Protein G, SP-sepharose)
As to B1, the binding result is “binds”.
